Experimental data reported in article PMC2553845 (2008).
Where no end group is shown, it is not given here.

Experiments:
Assay in all cases: ELISA
SCRIB PDZ domain 1 = SCRIB PDZ domain 1 (human, UniProt Q14160 728-815)
SCRIB PDZ domain 3 = target: T1, SCRIB PDZ domain 3 (human, UniProt Q14160 1004-1093)
T1 chain: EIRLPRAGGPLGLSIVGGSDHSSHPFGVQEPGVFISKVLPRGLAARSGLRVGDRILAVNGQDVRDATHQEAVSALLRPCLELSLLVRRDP

SCRIB PDZ domain 2 = target: T2, SCRIB PDZ domain 2 (human, UniProt Q14160 862-950)
T2 chain: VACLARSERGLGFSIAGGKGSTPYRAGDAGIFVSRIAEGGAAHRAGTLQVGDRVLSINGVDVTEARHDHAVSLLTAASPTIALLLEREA

Sequence of SCRIB PDZ domain 1 (Q14160 728-815): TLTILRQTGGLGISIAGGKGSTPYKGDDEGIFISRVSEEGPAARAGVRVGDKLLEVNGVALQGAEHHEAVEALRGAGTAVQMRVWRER

For RQIKIWFQNRRMKWKKRSWFETWV (not fully specified) [designed SCRIB PDZ-binding peptide Π-RSWFETWV (peptide 14)], the IC50 (SCRIB PDZ domain 1) was 2.2 µM, the IC50 (SCRIB PDZ domain 3) was 3.9 µM and the IC50 (SCRIB PDZ domain 2) was 4.7 µM.

With KHFRETEV (not fully specified) [peptide 2, C terminus of the HTLV-1 Tax protein] the IC50 (SCRIB PDZ domain 1) was 3.4 µM, the IC50 (SCRIB PDZ domain 3) was 58 µM and the IC50 (SCRIB PDZ domain 2) was 5.2 µM.
